The text below walks through data of article PMC11719512, “Exploring the Binding Mechanism of ADGRG2 Through Metadynamics and Biochemical Analysis” (International Journal of Molecular Sciences, 2024).

By IC50 is commonly meant the concentration that gives 50% inhibition.

Experiment [1] relates to ADGRG2. As to conditions: steroid hormones; endogenous; ref [23]; cited from earlier work. From the text:
Stachel (sequence: TSFGILLDLSRTSLP, with individual residues numbered from ss01 to ss15, where “ss” denotes Stachel sequence) is a key functional element of ADGRG2, playing a critical role in regulating the conformation and function of the receptor [8]. The Stachel sequence plays a pivotal role in receptor activation by mediating ligand binding and initiating the conformational changes required for signal transduction, highlighting its biological significance. In previous studies, the wild-type ADGRG2 Stachel sequence-derived peptidic agonist, VPM, was found t ... || Figure 1 Structural and binding analysis of ADGRG2 with agonists and antagonists. (A) Structure of ADGRG2, highlighting key domains involved in ligand binding. Identified agonists (DHEA, DHEAS, IP15) and antagonists (DOC, F601D, F601E) are labeled. […] (B) Schematic representation of metadynamics simulations and ligand binding assay conducted to investigate the binding mechanisms of antagonists F601D, F601E, and DOC to ADGRG2. (C) Structural representation of ADGRG2 in complex wi ...

Experiment [2] deals with DOC. The experiment in a line: BRET-based binding assay. Conditions: parent: est. -7.3; read off a plot.
For experiment [3], the system named is ADGRG2 (Nluc-ADGRG2 and its alanine mutants). The experiment in a line: FlAsh-BRET / BRET-based ligand binding assay with ADGRG2 mutants. Conditions: HEK293, competition with 50 μM IP15–FITC, 10^−9 to 10^−4 M competitor, HBSS, 40 min at 37 °C; mean ± SEM, n = 3. On the procedure: HEK293 cells were transiently transfected with plasmids for Nluc-ADGRG2 and its various mutants (ADGRG2-T624A, ADGRG2-C628A, ADGRG2-N668A, ADGRG2-Y758A, ADGRG2-K760A, ADGRG2-D768A, ADGRG2-N773A, ADGRG2-N775A, ADGRG2-N849A, ADGRG2-N860A). The cells were plated at a density of 3 × 10^4 per well in a black 96-well plate and cultured for 48 h at 37 °C with 5% CO2. To assess saturation binding, increasing concentrations of FITC-labeled IP15 (IP15–FITC) were added, alongside or without 300 μM of unlabeled IP15, for a 40-min incubation at 37 °C. For competitive binding assays, cells were treated with 50 μM IP15–FITC and varying concentrations (10^−9 to 10^−4 M) of competing peptides in HBSS buffer (containing 25 mM HEPES, 10 mM glucose, 146 mM NaCl, 5 mM KCl, 1 mM MgSO4, 2 mM sodium pyruvate, and 1.3 mM CaCl2) for 40 min at 37 °C. Coelenterazine H (final concentration of 5 μM, Promega) was added just before measuring BRET signals using a Mithras LB 940 Multimode Microplate Reader. Light emissions were recorded at 460 nm (80 nm bandpass) and 535 nm (60 nm bandpass) for IP15–FITC, and the raw BRET ratio was calculated as the 535 nm emission divided by the 460 nm emission.
For orientation: In BRET a luciferase serves as donor, and the signal depends on an acceptor being close.

In experiment [4] the target is T1, VPM-F601E, Q8CJ12.
T1 chain: TSEGILLDLSRTSLP
Put plainly: BRET-based binding assay. As to conditions: chain shown with the change;, read off a plot.

For experiment [5], the target named is T2, VPM-F601D, Q8CJ12.
T2 chain: TSDGILLDLSRTSLP
The experiment in a line: BRET-based binding assay. Conditions: chain shown with the change;; parent: est. -8.0; read off a plot.

As to `C[C@]12CC[C@H](O)CC1=CC[C@@H]1[C@@H]2CC[C@]2(C)C(=O)CC[C@@H]12` [DHEA, dehydroepiandrosterone], the “activity on ADGRG2 (agonist or antagonist)” value (“activity on ADGRG2” below) in experiment [1] is given as “endogenous agonists”.

For the molecule “Nluc-ADGRG2 (wild type) (from UniProt Q8CJ12) D768A”, the 50% inhibitory concentration (IC50) in experiment [2] was -5.9 log10(M).

Turning to deoxycorticosterone [DOC], the “binding to ADGRG2 with mutated polar residues (C628, N668, K760, D768, N860)” value in experiment [3] is “significantly weakened DOC’s ability to bind to ADGRG2”. The “activity on ADGRG2” value in experiment [1] is given as “endogenous antagonist”.

Take “Nluc-ADGRG2 (wild type) (from UniProt Q8CJ12) K760A”: the IC50 in experiment [2] was -5.6 log10(M).

`C[C@]12CC[C@H](OS(=O)(=O)O)CC1=CC[C@@H]1[C@@H]2CC[C@]2(C)C(=O)CC[C@@H]12` [DHEAS]: in experiment [1], the “activity on ADGRG2” value is on record as “endogenous agonists”.

B1: Nluc-ADGRG2 (wild type), Q8CJ12 Y758A (protein)
chain: LKENGNSSLLSPSAESSLVSLIPYSNGTPDAASEVLSTLNKTEKSKITIVKTFNASGVKSQRNICNLSSLCNDSVFFRGEIVFQHDEDHNVTQNQDTANGTFAGVLSLSELKRSELNKTLQTLSETYFIVCATAEAQSTVNCTFTVKLNETMNVCAMMVTFQTVQIRPMEQCCCSPRTPCPSSPEELEKLQCELQDPIVCLADQPHGPPLSSSSKPVVPQATIISHVASDFSLAEPLDHALMTPSTPSLTQESNLPSPQPTIPLASSPATDLPVQSVVVSSLPQTDLSHTLSPVQSSIPSPTTPAPSVPTELVTISTPPGETVVNTSTVSDLEAQVSQMEKALSLGSLEPNLAGEMVNRVSKLLHSPPALLAPLAQRLLKVVDAIGLQLNFSSTTISLTSPSLALAVIRVNASNFNTTTFAAQDPTNLQVSLETPPPENSIGAITLPSSLMNNLPANDVELASRIQFNFFETPALFQDPSLENLTLISYVISSSVTNMTIKNLTRNVTVALKHINPSPDDLTVKCVFWDLGRNGGKGGWSSDGCSVKDKRMNETICTCSHLTSFGILLDLSRTSLPPSQMMALTFITYIGCGLSSIFLSVTLVTYIAFEKIRRDYPSKILIQLCAALLLLNLIFLLDSWIALYNTRGFCIAVAVFLHYFLLVSFTWMGLEAFHMYLALVKVFNTYIRKYILKFCIVGWGIPAVVVSIVLTISPDNYGIGSAGKFPNGTPDDFCWINSNVVFYITVVGYFCVIFLLNVSMFIVVLVQLCRIKKKKQLGAQRKTSIQDLRSIAGLTFLLGITWGFAFFAWGPVNVTFMYLFAIFNTLQGFFIFIFYCAAKENVRKQWRRYLCCGKL
Turning to B1, the half-inhibitory concentration (IC50) in experiment [4] (parent: est. -8.5) is -7.1 log10(M).

B2: Nluc-ADGRG2 (wild type), Q8CJ12 K760A (protein)
chain: LKENGNSSLLSPSAESSLVSLIPYSNGTPDAASEVLSTLNKTEKSKITIVKTFNASGVKSQRNICNLSSLCNDSVFFRGEIVFQHDEDHNVTQNQDTANGTFAGVLSLSELKRSELNKTLQTLSETYFIVCATAEAQSTVNCTFTVKLNETMNVCAMMVTFQTVQIRPMEQCCCSPRTPCPSSPEELEKLQCELQDPIVCLADQPHGPPLSSSSKPVVPQATIISHVASDFSLAEPLDHALMTPSTPSLTQESNLPSPQPTIPLASSPATDLPVQSVVVSSLPQTDLSHTLSPVQSSIPSPTTPAPSVPTELVTISTPPGETVVNTSTVSDLEAQVSQMEKALSLGSLEPNLAGEMVNRVSKLLHSPPALLAPLAQRLLKVVDAIGLQLNFSSTTISLTSPSLALAVIRVNASNFNTTTFAAQDPTNLQVSLETPPPENSIGAITLPSSLMNNLPANDVELASRIQFNFFETPALFQDPSLENLTLISYVISSSVTNMTIKNLTRNVTVALKHINPSPDDLTVKCVFWDLGRNGGKGGWSSDGCSVKDKRMNETICTCSHLTSFGILLDLSRTSLPPSQMMALTFITYIGCGLSSIFLSVTLVTYIAFEKIRRDYPSKILIQLCAALLLLNLIFLLDSWIALYNTRGFCIAVAVFLHYFLLVSFTWMGLEAFHMYLALVKVFNTYIRKYILKFCIVGWGIPAVVVSIVLTISPDNYGIGSYGAFPNGTPDDFCWINSNVVFYITVVGYFCVIFLLNVSMFIVVLVQLCRIKKKKQLGAQRKTSIQDLRSIAGLTFLLGITWGFAFFAWGPVNVTFMYLFAIFNTLQGFFIFIFYCAAKENVRKQWRRYLCCGKL
With B2, the results for the IC50 in experiment [4] (parent: est. -8.5) and in experiment [5] were -7 log10(M) and -7.7 log10(M), respectively.

B3: Nluc-ADGRG2 (wild type), Q8CJ12 N849A (protein)
chain: LKENGNSSLLSPSAESSLVSLIPYSNGTPDAASEVLSTLNKTEKSKITIVKTFNASGVKSQRNICNLSSLCNDSVFFRGEIVFQHDEDHNVTQNQDTANGTFAGVLSLSELKRSELNKTLQTLSETYFIVCATAEAQSTVNCTFTVKLNETMNVCAMMVTFQTVQIRPMEQCCCSPRTPCPSSPEELEKLQCELQDPIVCLADQPHGPPLSSSSKPVVPQATIISHVASDFSLAEPLDHALMTPSTPSLTQESNLPSPQPTIPLASSPATDLPVQSVVVSSLPQTDLSHTLSPVQSSIPSPTTPAPSVPTELVTISTPPGETVVNTSTVSDLEAQVSQMEKALSLGSLEPNLAGEMVNRVSKLLHSPPALLAPLAQRLLKVVDAIGLQLNFSSTTISLTSPSLALAVIRVNASNFNTTTFAAQDPTNLQVSLETPPPENSIGAITLPSSLMNNLPANDVELASRIQFNFFETPALFQDPSLENLTLISYVISSSVTNMTIKNLTRNVTVALKHINPSPDDLTVKCVFWDLGRNGGKGGWSSDGCSVKDKRMNETICTCSHLTSFGILLDLSRTSLPPSQMMALTFITYIGCGLSSIFLSVTLVTYIAFEKIRRDYPSKILIQLCAALLLLNLIFLLDSWIALYNTRGFCIAVAVFLHYFLLVSFTWMGLEAFHMYLALVKVFNTYIRKYILKFCIVGWGIPAVVVSIVLTISPDNYGIGSYGKFPNGTPDDFCWINSNVVFYITVVGYFCVIFLLNVSMFIVVLVQLCRIKKKKQLGAQRKTSIQDLRSIAGLTFLLGITWGFAFFAWGPVAVTFMYLFAIFNTLQGFFIFIFYCAAKENVRKQWRRYLCCGKL
Regarding B3, in experiment [5], the IC50 is -7.9 log10(M).

B4: Nluc-ADGRG2 (wild type), Q8CJ12 N775A (protein)
chain: LKENGNSSLLSPSAESSLVSLIPYSNGTPDAASEVLSTLNKTEKSKITIVKTFNASGVKSQRNICNLSSLCNDSVFFRGEIVFQHDEDHNVTQNQDTANGTFAGVLSLSELKRSELNKTLQTLSETYFIVCATAEAQSTVNCTFTVKLNETMNVCAMMVTFQTVQIRPMEQCCCSPRTPCPSSPEELEKLQCELQDPIVCLADQPHGPPLSSSSKPVVPQATIISHVASDFSLAEPLDHALMTPSTPSLTQESNLPSPQPTIPLASSPATDLPVQSVVVSSLPQTDLSHTLSPVQSSIPSPTTPAPSVPTELVTISTPPGETVVNTSTVSDLEAQVSQMEKALSLGSLEPNLAGEMVNRVSKLLHSPPALLAPLAQRLLKVVDAIGLQLNFSSTTISLTSPSLALAVIRVNASNFNTTTFAAQDPTNLQVSLETPPPENSIGAITLPSSLMNNLPANDVELASRIQFNFFETPALFQDPSLENLTLISYVISSSVTNMTIKNLTRNVTVALKHINPSPDDLTVKCVFWDLGRNGGKGGWSSDGCSVKDKRMNETICTCSHLTSFGILLDLSRTSLPPSQMMALTFITYIGCGLSSIFLSVTLVTYIAFEKIRRDYPSKILIQLCAALLLLNLIFLLDSWIALYNTRGFCIAVAVFLHYFLLVSFTWMGLEAFHMYLALVKVFNTYIRKYILKFCIVGWGIPAVVVSIVLTISPDNYGIGSYGKFPNGTPDDFCWINSAVVFYITVVGYFCVIFLLNVSMFIVVLVQLCRIKKKKQLGAQRKTSIQDLRSIAGLTFLLGITWGFAFFAWGPVNVTFMYLFAIFNTLQGFFIFIFYCAAKENVRKQWRRYLCCGKL
For B4, the results for the IC50 in experiment [4] (parent: est. -8.1) and in experiment [5] were -5.4 log10(M) and -7.6 log10(M), respectively.

B5: Nluc-ADGRG2 (wild type), Q8CJ12 N773A (protein)
chain: LKENGNSSLLSPSAESSLVSLIPYSNGTPDAASEVLSTLNKTEKSKITIVKTFNASGVKSQRNICNLSSLCNDSVFFRGEIVFQHDEDHNVTQNQDTANGTFAGVLSLSELKRSELNKTLQTLSETYFIVCATAEAQSTVNCTFTVKLNETMNVCAMMVTFQTVQIRPMEQCCCSPRTPCPSSPEELEKLQCELQDPIVCLADQPHGPPLSSSSKPVVPQATIISHVASDFSLAEPLDHALMTPSTPSLTQESNLPSPQPTIPLASSPATDLPVQSVVVSSLPQTDLSHTLSPVQSSIPSPTTPAPSVPTELVTISTPPGETVVNTSTVSDLEAQVSQMEKALSLGSLEPNLAGEMVNRVSKLLHSPPALLAPLAQRLLKVVDAIGLQLNFSSTTISLTSPSLALAVIRVNASNFNTTTFAAQDPTNLQVSLETPPPENSIGAITLPSSLMNNLPANDVELASRIQFNFFETPALFQDPSLENLTLISYVISSSVTNMTIKNLTRNVTVALKHINPSPDDLTVKCVFWDLGRNGGKGGWSSDGCSVKDKRMNETICTCSHLTSFGILLDLSRTSLPPSQMMALTFITYIGCGLSSIFLSVTLVTYIAFEKIRRDYPSKILIQLCAALLLLNLIFLLDSWIALYNTRGFCIAVAVFLHYFLLVSFTWMGLEAFHMYLALVKVFNTYIRKYILKFCIVGWGIPAVVVSIVLTISPDNYGIGSYGKFPNGTPDDFCWIASNVVFYITVVGYFCVIFLLNVSMFIVVLVQLCRIKKKKQLGAQRKTSIQDLRSIAGLTFLLGITWGFAFFAWGPVNVTFMYLFAIFNTLQGFFIFIFYCAAKENVRKQWRRYLCCGKL
For B5, the 50% inhibitory concentration (IC50) in experiment [5] is -6.2 log10(M).
